According to patent US20210340225A1 (HARBOUR ANTIBODIES, published 2021):

B1: 47D11 fully human IgG1 monoclonal antibody (antibody, V domains shown)
VH: QVQLQESGPGLVKPSETLSLTCSVSGGSISSHYWSWIRQPPGKGLEWIGYIYYSGSTNHNPSLKSRVTISVDTSKNQFSLKLSSVTAADTAVYYCARGVLLWFGEPIFEIWGQGTMVTVSS
VL: EIVMTQSPATLSVSPGERATLSCRASQSVSSSLAWYQQKPGQAPRLLIYGASTRAPGIPARFSGSGSGTEFTLTISSLQSEDFAVYYCQQYNNWPLTFGGGTKVEIKR
B2: 49F1 VH41 VL42-4 (antibody, V domains shown)
VH: QVQLVQSGAEVKKPGSSVKVSCKASGGTFSSYAINWVRQAPGQGLEWMGGIIPIFGTANSAQKFQGRVTITADKSTSTAYMELSSLRSEDTAVYYCAREAGIPVAGLADWGQGTLVTVSS
VL: DIQMTQSPSTLSASVGDRVTITCRASQSISSYLNWYQQKPGKAPKLLIYKASSLESGVPSRFSGSGSGTEFTLTISSLQPDDFGTYYCQQYNSYYTFGQGTKLEIK

Key:
[1] = biological target: T1, SARS-CoV-2 spike ectodomain (SARS2-Secto), residues 1-1,213, with C-terminal trimerization motif and Strep-tag (SARS-CoV-2 (strain Wuhan-Hu-1), UniProt P0DTC2 14-1213)
[2] = biological target: T2, SARS-CoV spike [change] receptor binding domain (SARS-[change]), residues 325-533, Strep-tagged (SARS-CoV, UniProt P59594 325-533)
[3] = biological target: T3, SARS-CoV-2 spike S1B receptor binding domain (SARS2-S1B), residues 329-538, Strep-tagged (SARS-CoV-2 (strain Wuhan-Hu-1), UniProt P0DTC2 329-538)
[4] = biological target: T1, SARS-CoV-2 spike ectodomain …; remark: listed apart in the source
[5] = biological target: T2, SARS-CoV spike [change] receptor …; remark: listed apart in the source
[6] = biological target: T3, SARS-CoV-2 spike S1B receptor binding …; remark: listed apart in the source
[7] = biological target: T2, SARS-CoV spike [change] receptor …; remark: listed apart in the source
[8] = biological target: T3, SARS-CoV-2 spike S1B receptor binding …; remark: listed apart in the source
[9] = biological target: SARS-S with 28-a.a. cytoplasmic tail truncation, on pseudotyped VSV particles (SARS-CoV, UniProt P59594 14-1227); assay: cell-based or functional assay
[10] = biological target: SARS2-S with 18-a.a. cytoplasmic tail truncation, on pseudotyped VSV particles (SARS-CoV-2, UniProt P0DTC2 14-1255); assay: cell-based or functional assay
[11] = biological target: WIV16-S with 19-a.a. cytoplasmic tail truncation, on pseudotyped VSV particles (bat SARS-like coronavirus WIV16); assay: cell-based or functional assay
[12] = biological target: T1, SARS-CoV-2 spike ectodomain …; assay: ELISA, antigen coated at equimolar amounts, mAb titrated
[13] = biological target: T2, SARS-CoV spike [change] receptor …; assay: as above
[14] = biological target: T3, SARS-CoV-2 spike S1B receptor binding …; assay: ELISA, antigen coated at equimolar amounts, mAb titrated; ELISA EC50, not BLI
[15] = biological target: T2, SARS-CoV spike [change] receptor …; assay: ELISA, serial dilution of supernatant after transfection
[16] = biological target: T3, SARS-CoV-2 spike S1B receptor binding …; assay: as above

Binder	Kd [1] [nM]	Kd [2] [nM]	Kd [3] [nM]	koff [4] [s⁻¹]	kon [4] [M⁻¹ s⁻¹]	koff [5] [s⁻¹]	kon [5] [M⁻¹ s⁻¹]	koff [6] [s⁻¹]	kon [6] [M⁻¹ s⁻¹]	EC50 (read off the curve) [7] [µg/mL]	EC50 (read off the curve) [8] [µg/mL]	IC50, infection of VeroE6 cells with SARS-S pseudotyped VSV (luciferase) [9] [µg/mL]	IC50, infection of VeroE6 cells with SARS2-S pseudotyped VSV (luciferase) [10] [µg/mL]	IC50, neutralization of WIV16-S pseudotyped VSV [11] [µg/mL]	EC50 [12] [µg/mL]	EC50 [13] [µg/mL]	EC50 [14] [µg/mL]	binding result [15]	binding result [16]
B1	10.8	16.1	9.6	9.85e-05	9770	0.00021	20000	0.000137	15100	~0.1	~0.1	0.06	0.08	0.165	0.15	0.02	0.03		
B2																		no binding (tested: undiluted supernatant)	no binding (tested: undiluted supernatant)
